According to US20030166014A1 (CURATORS OF THE UNIVERSITY OF MISSOURI, published 2003):

What was measured:
[1] = target: T1, Maackia amurensis lectin (MAL) (Maackia amurensis); assay: lectin ELISA; slope of absorbance at 405 nm against ng Hp
T1 construct: Used at 10 µg/ml in the lectin ELISA

[2] = target: T2, Lotus tetragonolobus lectin (LTL) (Lotus tetragonolobus, UniProt P19664 1-240); assay: as above
T2 construct: Used at 2 µg/ml in the lectin ELISA
T2 sequence (looked up): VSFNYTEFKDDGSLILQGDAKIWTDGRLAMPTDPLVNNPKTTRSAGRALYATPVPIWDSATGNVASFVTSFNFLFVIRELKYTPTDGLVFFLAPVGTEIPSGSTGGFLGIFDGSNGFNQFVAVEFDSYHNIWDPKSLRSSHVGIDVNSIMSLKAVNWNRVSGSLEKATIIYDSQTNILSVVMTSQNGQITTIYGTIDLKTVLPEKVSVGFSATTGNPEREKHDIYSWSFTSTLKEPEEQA

T1 sequence (P0DKL3 30-278): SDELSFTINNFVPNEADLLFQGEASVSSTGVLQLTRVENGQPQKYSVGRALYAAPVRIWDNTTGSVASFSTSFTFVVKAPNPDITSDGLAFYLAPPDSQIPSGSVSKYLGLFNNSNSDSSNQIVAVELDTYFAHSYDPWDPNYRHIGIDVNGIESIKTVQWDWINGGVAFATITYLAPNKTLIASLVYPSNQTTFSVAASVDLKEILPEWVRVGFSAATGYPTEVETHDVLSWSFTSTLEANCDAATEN

B1: endometriosis-associated peritoneal endometriotic haptoglobin (pHp) (other, human)
chain 1: VDSGNDVTDIADDGCPKPPEIAHGYVEHSVRYQCKNYYKLRTEGDGVYTLNDKKQWINKAVGDKLPECEADDGCPKPPEIAHGYVEHSVRYQCKNYYKLRTEGDGVYTLNNEKQWINKAVGDKLPECEAVCGKPKNPANPVQ
chain 2: ILGGHLDAKGSFPWQAKMVSHHNLTTGATLINEQWLLTTAKNLFLNHSENATAKDIAPTLTLYVGKKQLVEIEKVVLHPNYSQVDIGLIKLKQKVSVNERVMPICLPSKDYAEVGRVGYVSGWGRNANFKFTDHLKYVMLPVADQDQCIRHYEGSTVPEKKTPKSPVGVQPILNEHTFCAGMSKYQEDTCYGDAGSAFAVHDLEEDTWYATGILSFDKSCAVAEYGVYVKVTSIQDWVQKTIAEN
modifications: N-glycosylated; 3 kDa less carbohydrate than sHp beta-chain; more alpha(2-3) sialic acid and fucose than sHp
notes: domain: α-subunit;domain: β-subunit; also called peritoneal endometriotic Hp
**Q.** For B1, which “fold binding relative to sHp” value [1] is on record?
**A.** 10 times (vs sHp)

**Q.** And the “fold binding relative to sHp” value [2]?
**A.** 11 times (vs sHp)
